Source: PMC9354408, “How to Achieve Sufficient Endogenous Insulin Suppression in Euglycemic Clamps Assessing the Pharmacokinetics and Pharmacodynamics of Long-Acting Insulin Preparations Employing Healthy Volunteers” (Frontiers in Pharmacology, 2022)

Legend:
Type in all cases: in vivo, healthy Chinese men and women
[1] = Pharmacokinetics of exogenous IGlar (total insulin radioimmunoassay, C-peptide corrected by Owens's method); settings: 0.5 IU/kg s.c., arithmetic mean ± SD; for AUCIGlar,0-12h / AUCIGlar,0-24h / IGlarmax: serum, C-peptide corrected
Protocol: (§1) All enrolled subjects underwent a euglycemic glucose clamp lasting for up to 24 h after a 0.5-IU/kg IGlar injection. All the participants were restrained from strenuous exercise, smoking, alcohol, or caffeinated drinks. Since a C-peptide suppression of more than 50% is widely recognized as sufficient endogenous insulin suppression, the subjects fell into two groups based on the ratio of C-peptide reduction from baseline (group A: C-peptide reduction <50%; group B: C-peptide reduction ≥50%). The data were collected from a clinical trial (NCT03555305) ([Liu et al., 2021]), which was conducted to evaluate the pharmacokinetic and pharmacodynamic equivalence of an IGlar biosimilar (LY2963016) manufactured by Eli Lilly to Lantus manufactured by Sanofi.
(§2) A 6-ml blood sample for analysis of C-peptide and total insulin levels were collected before drug administration (0.5 and 0 h before dosing) and every 0.5–3 h throughout the clamp as described before ([Liu et al., 2021]). The whole blood sample was drawn into a serum tube and gently mixed by inversion (>5 times). Then the sample was required to clot for 30–60 min at room temperature. The tube was centrifuged at 1,500–2000g for 15–20 min to separate serum. The serum was transferred without red blood cells contained, and frozen at -70 °C until shipment for analysis. The concentration of total insulin was determined by a validated radioimmunoassay method ([Kuerzel et al., 2003]; [Shen et al., 2019]) with a quantification range of 50–2000 pmol/L at WuXi AppTec Co., Ltd. in Shanghai, China. The exogenous IGlar level was calculated by subtracting the endogenous insulin based on C-peptide using Owens’s method ([Owens, 1986]). The C-peptide concentration was analyzed by a direct chemiluminescent technology in Covance Laboratory (Shanghai, China) with a quantification range of 0.07–352 ng/ml.
(§3) If a measured value of total insulin or C-peptide was below the lower limit of quantification, it would be included in statistics as half of the limit. A calculated value of IGlar below zero after C-peptide correction would be excluded from the PK statistics. The primary PK parameters included the area under the curve (AUC) of IGlar from time 0–24 h (AUCIGlar, 0–24 h) and the maximum IGlar (IGlarmax) corrected by C-peptide. Other PK parameters included AUC of IGlar from 0 to 12 h (AUCIGlar, 0–12 h) and time to IGlarmax (tIGlarmax).

[2] = Serum total insulin during clamp (radioimmunoassay); design: AUCTotal insulin,0-12h / AUCTotal insulin,0-24h: unit not given here; settings: 0.5 IU/kg s.c., arithmetic mean ± SD; for AUCTotal insulin,0-12h / AUCTotal insulin,0-24h: serum, before C-peptide correction
Protocol: as §1, §2, §3

[3] = tested on: endogenous insulin secretion; assay: Serum C-peptide during clamp (endogenous insulin suppression, direct chemiluminescence); settings: arithmetic mean ± SD; for Mean postdose C-peptide: after 0.5 IU/kg s.c. IGlar; for C-peptide reduction: postdose versus baseline
Protocol: as §1, §2, §3

[4] = Manual euglycemic glucose clamp, glucose infusion rate (pharmacodynamics); settings: for AUCGIR,0-24h / GIRmax / tGIRmax: 0.5 IU/kg s.c., arithmetic mean ± SD; for AUCGIR,0-12h: single 0.5 IU/kg s.c. IGlar (LY2963016 or Lantus), clamp up to 24 h, target BG 0.28 mmol/L below baseline, median (interquartile range); for GIRmax after correction / AUCGIR, 0–24 h after correction: corrected using the corresponding exogenous IGlar parameter as a covariant; for AUCGIR, 0–24 h after correction: first mention
Protocol: as §1
At the dosing visit, an overnight fast of at least 8 h must be guaranteed prior to IGlar administration. Two catheters were placed into the antecubital vein and the hand vein, respectively, for 20% dextrose infusing and blood sampling correspondingly. The baseline of BG was defined as the mean of three BG measurements at 30, 20, and 10 min prior to the IGlar administration. A single dose (0.5 IU/kg) of Lantus or LY2963016 was subcutaneously injected into a lifted abdominal skinfold. A 0.1-ml blood sample was collected from the hand vein which was continuously heated in a warm blanket (55 ± 5 °C) at an interval of 10–20 min for the analysis of BG levels. A variable GIR was frequently adjusted and timely recorded to maintain the BG around 0.28 mmol/L below the baseline and represent the pharmacodynamic activity of IGlar, respectively.
The BG levels were immediately determined in whole blood at the bedside by a glucose analyzer (Biosen C_line, EKF Diagnostics, Barleben, Germany) with the glucose oxidase method. The measuring range of this method was 0.5–50 mmol/L with a high precision of 1.5%. The clamp would end if no exogenous glucose infusion was required for at least 0.5 h.
Individual GIR values were smoothed by a locally weighted scatterplot smoothing technique. The maximum GIR (GIRmax) and the total amount of glucose infused throughout the clamp (AUCGIR, 0–24 h) were defined as primary PD parameters. Secondary PD parameters included time to GIRmax (tGIRmax) and AUC of GIR from 0 to 12 h (AUCGIR, 0–12 h).

[5] = group A (C-peptide reduction <50%), N = 52
[6] = group B (C-peptide reduction >=50%), N = 26

## insulin glargine [IGlar]
[1]; [5]
  tIGlarmax: 11.7 ± 3.97 h
  AUCIGlar,0-12h: 1,099 ± 342 pmol/L×h
  AUCIGlar,0-24h: 2,194 ± 597 pmol/L×h
  IGlarmax: 122.7 ± 37.7 pmol/L
[1]; [6]
  tIGlarmax: 11.6 ± 2.66 h
  AUCIGlar,0-12h: 1,295 ± 360 pmol/L×h
  AUCIGlar,0-24h: 2,534 ± 597 pmol/L×h
  IGlarmax: 147.7 ± 42.5 pmol/L
[2]; [5]
  Maximum total insulin: 151.8 ± 42.0 pmol/L
  Time of maximum total insulin: 10.9 ± 5.55 h
  AUCTotal insulin,0-12h: 1,444 ± 398
  AUCTotal insulin,0-24h: 2,853 ± 713
[2]; [6]
  Maximum total insulin: 162.1 ± 41.9 pmol/L
  Time of maximum total insulin: 10.8 ± 3.77 h
  AUCTotal insulin,0-12h: 1,510 ± 368
  AUCTotal insulin,0-24h: 2,958 ± 626
[3]; [5]
  Mean postdose C-peptide: 201 ± 74 pmol/L
[3]; group A (defined by C-peptide reduction <50%), N = 52
  C-peptide reduction: 39.5 ± 6.7%
[3]; [6]
  Mean postdose C-peptide: 134 ± 50 pmol/L
[3]; group B (defined by C-peptide reduction >=50%), N = 26
  C-peptide reduction: 57.4 ± 5.5%
[4]; [5]
  AUCGIR,0-24h: 2,415 ± 953 mg/kg
  GIRmax: 2.82 ± 1.06 mg/kg/min
  tGIRmax: 666 ± 202 min
  AUCGIR,0-12h: 989 (642) mg/kg
[4]; group A
  GIRmax after correction: 2.96 mg/kg/min
  AUCGIR, 0–24 h after correction: 2,513 mg/kg
[4]; [6]
  AUCGIR,0-24h: 2,891 ± 908 mg/kg
  GIRmax: 3.36 ± 1.07 mg/kg/min
  tGIRmax: 678 ± 180 min
  AUCGIR,0-12h: 1,320 (615) mg/kg
[4]; group B
  GIRmax after correction: 3.09 mg/kg/min
  AUCGIR, 0–24 h after correction: 2,697 mg/kg
